Measurements: patent US10584350B2, “Structurally modified COI1” (Board of Trustees of Michigan State University, priority 2016, dated 2020)
Substitutions are numbered along the chain they refer to. In names and notes the source's numbering stands.

Legend:
COI1-JAZ9 interaction [1] = assay: Quantitative liquid Y2H assays (Beta-Glo, RLU); format: cell-based, Arabidopsis; conditions: yeast; for COR-dependent COI1-JAZ9 interaction / JA-Ile-dependent COI1-JAZ9 interaction / differential effect on JA-Ile-dependent vs COR-dependent COI1-JAZ9 interaction: liquid Y2H; for COR-dependent COI1-JAZ9 interaction: 1 μM COR; for JA-Ile-dependent COI1-JAZ9 interaction: 10 or 30 μM JA-Ile
Experimental: Yeast EGY48 strain carrying the p8Op:LacZ reporter plasmid was co-transformed with pGilda:COI1 (or COI1 mutants) and pB42AD:JAZ9 (or other JAZs) (Clontech). Colonies were selected on SD minimal plates (BD Biosciences) supplemented with the—uracil (U)/-tryptophan (W)/-histidine (H) amino acid drop out solution (Clontech). Yeast colonies were cultured overnight in liquid SD-UWH medium, harvested, washed twice in sterile water, and the absorbance (OD600) of the cultures was adjusted to 0.2 in liquid SD galactose/raffinose-UWH medium (BD Biosciences).
For liquid Y2H assays, cultures were supplemented with designated concentrations of JA-Ile (10 or 30 μM), COR (1 μM), or DMSO. After 16-h incubation with ligands, the liquid cultures were processed through the Beta-Glo Assay system (Promega) for detecting the β-galactosidase activity. […] Protein expression in yeast was detected using anti-LexA antibody (1:5,000; Upstate Biotechnology) for detection of COI1 expression from pGilda vector and anti-HA (1:5,000; Roche Life Science) antibody for detection of JAZ9 expression in pB42AD vector.

COI1-JAZ9 interaction [2] = conditions: Y2H; Thines et al., Melotto et al.; cited from earlier work
COI1-JAZ9 interaction [3] = assay: Y2H assays on plates for protein-protein interaction; format: cell-based, Arabidopsis; conditions: 10 μM COR, yeast

CC/C=C\C[C@H]1C(=O)CC[C@@H]1CC(=O)N[C@H](C(=O)O)[C@@H](C)CC [JA-Ile, jasmonoyl-L-isoleucine, reference compound]
concentrations equivalent in promoting the COI1-JAZ9 interaction (COI1-JAZ9 interaction [1]; JA-Ile is a mixture of active and inactive isomers, COR pure): 10 µM

CC/C=C\C[C@H]1C(=O)CC[C@@H]1CC(=O)O [JA, jasmonic acid]
activity in yeast (COI1-JAZ9 interaction [2]): not active

B1: R409A: COI1 alanine substitution mutant at R409 (protein)
chain: MEDPDIKRCKLSCVATVDDVIEQVMTYITDPKDRDSASLVCRRWFKIDSETREHVTMALCYTATPDRLSRRFPNLRSLKLKGKPRAAMFNLIPENWGGYVTPWVTEISNNLRQLKSVHFRRMIVSDLDLDRLAKARADDLETLKLDKCSGFTTDGLLSIVTHCRKIKTLLMEESSFSEKDGKWLHELAQHNTSLEVLNFYMTEFAKISPKDLETIARNCRSLVSVKVGDFEILELVGFFKAAANLEEFCGGSLNEDIGMPEKYMNLVFPRKLCRLGLSYMGPNEMPILFPFAAQIRKLDLLYALLETEDHCTLIQKCPNLEVLETRNVIGDRGLEVLAQYCKQLKRLRIERGADEQGMEDEEGLVSQRGLIALAQGCQELEYMAVYVSDITNESLESIGTYLKNLCDFALVLLDREERITDLPLDNGVRSLLIGCKKLRRFAFYLRQGGLTDLGLSYIGQYSPNVRWMLLGYVGESDEGLMEFSRGCPNLQKLEMRGCCFSERAIAAAVTKLPSLRYLWVQGYRASMTGQDLMQMARPYWNIELIPSRRVPEVNQQGEIREMEHPAHILAYYSLAGQRTDCPTTVRVLKEPI
COR-dependent COI1-JAZ9 interaction (COI1-JAZ9 interaction [3]): reduced | COR-dependent COI1-JAZ9 interaction (COI1-JAZ9 interaction [1]): reduced | JA-Ile-dependent COI1-JAZ9 interaction (COI1-JAZ9 interaction [1]): reduced

B2: A384P: COI1 substitution mutant at A384 (protein)
chain: B1 chain with A384P, A409R
COR-dependent COI1-JAZ9 interaction (COI1-JAZ9 interaction [1]): completely disrupted | JA-Ile-dependent COI1-JAZ9 interaction (COI1-JAZ9 interaction [1]): completely disrupted

B3: A384L: COI1 substitution mutant at A384 (protein)
chain: B1 chain with A384L, A409R
COR-dependent COI1-JAZ9 interaction (COI1-JAZ9 interaction [1]): completely disrupted | JA-Ile-dependent COI1-JAZ9 interaction (COI1-JAZ9 interaction [1]): completely disrupted

B4: COI1A384S: COI1 mutant, alanine 384 substituted with serine (protein)
chain: B1 chain with A384S, A409R
modifications: left off: small tags and cut ends
notes: COI1 mutant, alanine 384 substituted with serine
JA-Ile-dependent COI1-JAZ9 interaction (COI1-JAZ9 interaction [1]): reduced

B5: R496A: COI1 alanine substitution mutant at R496 (protein)
chain: B1 chain with A409R, R496A
COR-dependent COI1-JAZ9 interaction (COI1-JAZ9 interaction [3]): reduced | differential effect on JA-Ile-dependent vs COR-dependent COI1-JAZ9 interaction (COI1-JAZ9 interaction [1]): affect JAIle-dependent interaction more than COR-dependent interaction

B6: A384D: COI1 substitution mutant at A384 (protein)
chain: B1 chain with A384D, A409R
COR-dependent COI1-JAZ9 interaction (COI1-JAZ9 interaction [1]): completely disrupted | JA-Ile-dependent COI1-JAZ9 interaction (COI1-JAZ9 interaction [1]): completely disrupted

B7: D354: COI1 alanine substitution mutant at D354 (protein, UniProt O04197 1-592, looked up, variant D354A)
Coronatine-insensitive …: B1 chain with D354A, A409R
COR-dependent COI1-JAZ9 interaction (COI1-JAZ9 interaction [3]): reduced

B8: COI1A86I: COI1 mutant, alanine 86 substituted with isoleucine (protein)
chain: B1 chain with A86I, A409R
modifications: left off: small tags and cut ends
notes: COI1 mutant, alanine 86 substituted with isoleucine
COR-dependent COI1-JAZ9 interaction (COI1-JAZ9 interaction [1]): reduced | JA-Ile-dependent COI1-JAZ9 interaction (COI1-JAZ9 interaction [1]): abolished

B9: G357: COI1 alanine substitution mutant at G357 (protein, UniProt O04197 1-592, looked up, variant G357A)
Coronatine-insensitive …: B1 chain with G357A, A409R
COR-dependent COI1-JAZ9 interaction (COI1-JAZ9 interaction [3]): reduced

B10: A384N: COI1 substitution mutant at A384 (protein)
chain: B1 chain with A384N, A409R
COR-dependent COI1-JAZ9 interaction (COI1-JAZ9 interaction [1]): completely disrupted | JA-Ile-dependent COI1-JAZ9 interaction (COI1-JAZ9 interaction [1]): completely disrupted

B11: A384C: COI1 substitution mutant at A384 (protein)
chain: B1 chain with A384C, A409R
COR-dependent COI1-JAZ9 interaction (COI1-JAZ9 interaction [1]): reduced | JA-Ile-dependent COI1-JAZ9 interaction (COI1-JAZ9 interaction [1]): reduced

B12: COI1A86V: COI1 mutant, alanine 86 substituted with valine (protein)
chain: B1 chain with A86V, A409R
modifications: left off: small tags and cut ends
notes: COI1 mutant, alanine 86 substituted with valine
COR-dependent COI1-JAZ9 interaction (COI1-JAZ9 interaction [1]): reduced | JA-Ile-dependent COI1-JAZ9 interaction (COI1-JAZ9 interaction [1]): abolished

B13: COI1A384I: COI1 mutant, alanine 384 substituted with isoleucine (protein)
chain: B1 chain with A384I, A409R
modifications: left off: small tags and cut ends
notes: COI1 mutant, alanine 384 substituted with isoleucine
COR-dependent COI1-JAZ9 interaction (COI1-JAZ9 interaction [1]): disrupted | JA-Ile-dependent COI1-JAZ9 interaction (COI1-JAZ9 interaction [1]): disrupted

B14: R85A: COI1 alanine substitution mutant at R85 (protein)
chain: B1 chain with R85A, A409R
differential effect on JA-Ile-dependent vs COR-dependent COI1-JAZ9 interaction (COI1-JAZ9 interaction [1]): affect JAIle-dependent interaction more than COR-dependent interaction

B15: A384G: COI1 substitution mutant at A384 (protein)
chain: B1 chain with A384G, A409R
COR-dependent COI1-JAZ9 interaction (COI1-JAZ9 interaction [1]): completely disrupted | JA-Ile-dependent COI1-JAZ9 interaction (COI1-JAZ9 interaction [1]): completely disrupted

B16: A384T: COI1 substitution mutant at A384 (protein)
chain: B1 chain with A384T, A409R
COR-dependent COI1-JAZ9 interaction (COI1-JAZ9 interaction [1]): completely disrupted | JA-Ile-dependent COI1-JAZ9 interaction (COI1-JAZ9 interaction [1]): completely disrupted

B17: R351: COI1 alanine substitution mutant at R351 (protein, UniProt O04197 1-592, looked up, variant R351A)
Coronatine-insensitive …: B1 chain with R351A, A409R
COR-dependent COI1-JAZ9 interaction (COI1-JAZ9 interaction [3]): reduced
